Residue numbers refer to the chain shown, from its start. In names and notes the source's numbering stands.

The labels stand for the following.
T1: CD81 large extracellular loop (LEL) (UniProt P60033 113-201)
T1 construct: domain: large extracellular loop (LEL); not shown: C-terminal twin Strep tag
T1 sequence: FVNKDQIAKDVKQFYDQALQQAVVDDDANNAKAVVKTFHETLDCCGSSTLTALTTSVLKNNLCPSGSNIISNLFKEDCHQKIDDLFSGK

B1: sE2 design H445P (other)
chain: ETHVTGGSAGRTTAGLVGLLTPGAKQNIQLINTNGSWHINSTALNCNESLNTGWLAGLFYQPKFNSSGCPERLASCRRLTDFAQGWGPISYANGSGLDERPYCWHYPPRPCGIVPAKSVCGPVYCFTPSPVVVGTTDRSGAPTYSWGANDTDVFVLNNTRPPLGNWFGCTWMNSTGFTKVCGAPPCVIGGVGNNTLLCPTDCFRKHPEATYSRCGSGPWITPRCMVDYPYRLWHYPCTINYTIFKVRMYVGGVEHRLEAACNWTRGERCDLEDRDRSE
B2: wild-type soluble E2 (sE2), HCV isolate H77C, residues 384-661 (other)
chain: B1 chain with P62H
B3: sE2 design Y632NS (Y632N-G634S) (other)
chain: B1 chain with P62H, Y249N, G251S
B4: sE2 design Triple (ΔHVR1-H445P-Y632NS) (other)
chain: KQNIQLINTNGSWHINSTALNCNESLNTGWLAGLFYQPKFNSSGCPERLASCRRLTDFAQGWGPISYANGSGLDERPYCWHYPPRPCGIVPAKSVCGPVYCFTPSPVVVGTTDRSGAPTYSWGANDTDVFVLNNTRPPLGNWFGCTWMNSTGFTKVCGAPPCVIGGVGNNTLLCPTDCFRKHPEATYSRCGSGPWITPRCMVDYPYRLWHYPCTINYTIFKVRMNVSGVEHRLEAACNWTRGERCDLEDRDRSE

This assay deals with T1, CD81 large extracellular loop (LEL). Description: BLI (Octet RED96), His6-tagged sE2 on Ni-NTA biosensors, CD81-LEL in solution.
B1: the binding result is listed as “binds”. As for B2, the binding result is given as “binds”. Regarding B3, the binding result is given as “binds”. B4: the binding result was “binds”.
